In data set [1] the test system is ZF11xHunt-Kox-1 (Artificial). Briefly: cell_activity.
Data set [2] concerns ZF6xHunt-Kox-1 (Artificial). Briefly: cell_activity. The following applies: htt mRNA (up to 2.5-fold); protein up to 2-fold; STHdh Q111/Q111, 20 days.
ZF6xHunt-Kox-1 (Artificial), sequence (chain, as listed by the source): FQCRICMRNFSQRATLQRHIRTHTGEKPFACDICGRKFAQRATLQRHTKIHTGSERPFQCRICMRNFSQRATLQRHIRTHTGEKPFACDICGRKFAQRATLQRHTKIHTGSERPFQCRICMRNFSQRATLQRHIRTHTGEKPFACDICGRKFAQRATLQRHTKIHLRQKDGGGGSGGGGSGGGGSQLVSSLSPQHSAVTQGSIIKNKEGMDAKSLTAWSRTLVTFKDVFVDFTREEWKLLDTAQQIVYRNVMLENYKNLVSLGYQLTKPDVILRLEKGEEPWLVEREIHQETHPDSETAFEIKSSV

ZF11xHunt-Kox-1 (Artificial), sequence (chain, as listed by the source): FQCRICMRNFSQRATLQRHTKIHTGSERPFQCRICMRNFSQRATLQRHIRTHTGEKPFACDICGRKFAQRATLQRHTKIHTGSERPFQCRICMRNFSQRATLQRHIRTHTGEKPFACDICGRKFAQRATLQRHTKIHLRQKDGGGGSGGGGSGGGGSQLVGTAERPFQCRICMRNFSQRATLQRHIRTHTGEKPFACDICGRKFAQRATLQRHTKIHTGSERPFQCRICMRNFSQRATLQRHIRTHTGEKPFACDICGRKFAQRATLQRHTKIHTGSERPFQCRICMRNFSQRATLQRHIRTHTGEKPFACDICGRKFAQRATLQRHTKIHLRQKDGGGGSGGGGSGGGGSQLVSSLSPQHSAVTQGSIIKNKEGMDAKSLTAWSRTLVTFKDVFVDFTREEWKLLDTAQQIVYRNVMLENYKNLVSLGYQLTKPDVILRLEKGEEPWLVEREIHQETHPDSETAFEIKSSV

R6/2 mutant HTT transgene: the activity (% mRNA reduction) in data set [1] (AAV2/1 striatal delivery, R6/2 mice, week 6, average) is more than 45.

In the case of STHdh Q111 mutant htt locus, in data set [1] (protein reduced 95%, STHdh Q111/Q111, 20 days), the activity (% mRNA reduction) stood at 80. This substance came in with an activity (fold repression) in data set [2] of less than 2.5.
